Patent US20250102513A1

Experiments:
PA peptide [1] = assay: >
PA peptide [2] = assay: three sequential binding/encoding cycles with cycle-specific barcodes (BC4, BC5, BC13); NGS of the final product

Q: How did the share of extended recording tags with all three cycle barcodes (PA peptide [1]) turn out when anti-PA antibody (Wako Chemicals) was run?
A: Its share of extended recording tags with all three cycle barcodes is 78%.

Q: What about the share of extended recording tags with one barcode (PA peptide [2]) of the same substance?
A: Its share of extended recording tags with one barcode is 1.1%.

Q: What about the share of extended recording tags with two barcodes (PA peptide [2]) of the same substance?
A: Its share of extended recording tags with two barcodes is 20.7%.
